B1: Ab14: mouse hybridoma anti-B7-H3 monoclonal antibody, mouse IgG1/k (antibody, V domains shown)
VH: EVKLVESGGGLVKPGGSLKLSCAASGFTFSSYGMSWVRQTPEKRLEWVATISGGGTNTYYPDSVEGRFTISRDNAKNFLYLQMSSLRSEDTALYYCARHYGSQTMDYWGQGTSVTVSS
VL: DIQMTQSPASLSASVGETVTITCRTSGNIHNYLTWYQQKQGKSPQLLVYNAKTLADGVPSRFSGSGSGTQFSLKINSLQPEDFGSYYCQHFWSIMWTFGGGTKLEIK
B2: Ab4: mouse hybridoma anti-B7-H3 monoclonal antibody, mouse IgG2b/k (antibody, V domains shown)
VH: QVQLQQPGAELVKPGASVKLSCKASGYSFTSYWMHWVKQRPGQGLEWIGMIHPNSGSNNYNEKFKSKATLTVDKSSNTAYMQLSSLTSEDSAVYYCARRLGLHFDYWGQGTTLTVSS
VL: DIVMTQSQKFMSTPVGDRVSITCKASQNVGTAVAWYQQKPGQSPKLLIYSASNRYTGVPDRFTGSGSGTDFTLTISNMQSEDLADYFCQQYSSYPYTFGGGTKLEIK
B3: Ab17: mouse hybridoma anti-B7-H3 monoclonal antibody, mouse IgG2b/k (antibody, V domains shown)
VH: EVKLVESGGGLVQPGGSLKLSCAASGFTFSSYIMSWVRQTPEKRLEWVASIVSSNITYYPDSMKGRFTISRDNARNILYLQMSSLKSEDTAMYYCARSGTRAWFAYWGQGTLVTVSA
VL: DIVLTQSPASLAVSLGQRATISCRASKSVSTSAYSYMHWYQQKPGQPPKLLIYLASNLESGVPARFSGSGSGTDFTLNIHPVEEEDAATYYCQHSRELPYTFGGGTKLEIK
B4: Ab3: mouse hybridoma anti-B7-H3 monoclonal antibody, mouse IgG1/k (antibody, V domains shown)
VH: QVQLQQPGAELVKPGASVKLSCKASGYTFSSYWMHWVKQRPGQGLEWIGLIHPDSGSTNYNEMFKNKATLTVDRSSSTAYVQLSSLTSEDSAVYFCAGGGRLYFDYWGQGTTLTVSS
VL: DVVMTQTPLSLPVSLGDQASISCRSSQSLVHSNGDTYLRWYLQKPGQSPKLLIYKVSNRFSGVPDRFSGSGSGTDFTLKITRVEAEDLGVYFCSQSTHVPYTFGGGTKLEIK
B5: Ab10: mouse hybridoma anti-B7-H3 monoclonal antibody, mouse IgG2b/k (antibody, V domains shown)
VH: DVQLQESGPGLVKPSQSLSLTCTVTGYSITSDYAWNWIRQFPGNRLEWMGHINYSGITNYNPSLKSRISITRDTSKNQFFLQLYSVTTEDTATYFCARRSLFYYYGSSLYAMDYWGQGTSVTVSS
VL: DVVMTQSPFSLPVSLGDQASISCRSSQSLVHSNGNTYLHWYLQKPGQSPKLLIYKVSNRFSGVPDRFSGSGSGTDFTLKISRVEAEDLGVYFCSQSTHVPWTFGGGTKLEIK
B6: Ab2: mouse hybridoma anti-B7-H3 monoclonal antibody, mouse IgG1/k (antibody, V domains shown)
VH: QVQLQQPGAELVKPGASVKLSCKASGYTFTSYWMHWVKQRPGQGLEWIGMIHPDSGTTNYNEKFRSKATLTVDKSSSTAYMQLSSLTSEDSAVYYCAVYYGSTYWYFDVWGTGTTVTVSS
VL: DVVMTQTPLSLPVSLGDQAYISCRSSQSLVHINGNTYLHWYRQKPGQSPKLLIYKVSNRFSGVPDRFSGSGSGTDFTLKISRVEAEDLGVYFCSQSTHFPFTFGSGTKLEIK
B7: Ab13: mouse hybridoma anti-B7-H3 monoclonal antibody, mouse IgG1/k (antibody, V domains shown)
VH: DVQLQESGPDLVKPSQSLSLTCTVTGYSITSGYSWHWIRQFPGNKLEWMGYIHSSGSTNYNPSLKSRISINRDTSKNQFFLQLNSVTTEDTATYYCAGYDDYFEYWGQGTTLTVSS
VL: DIVMTQSQKFMSTSVGDRVSVTCKASQNVGFNVAWYQQKPGQSPKALIYSASYRYSGVPDRFTGSGSGTDFTLTISNVQSEDLAEYFCQQYNSYPFTFGSGTKLEIK
B8: Ab5: mouse hybridoma anti-B7-H3 monoclonal antibody, mouse IgG1/k (antibody, V domains shown)
VH: QVQLQQPGDELVKPGASVKLSCKTSGYTFTTDWMHWVKQRPGQGLEWIGMIHPNSGTTNYNEKFKSKAALTVDKSSSTACMQLSSLTSEDSAVYYCARSYWKWYFDVWGTGTTVTVSS
VL: QIVLTQSPAIMSASLGEEITLTCSASSSVSYMHWYQQKSGTSPKLLIYSTSNLASGVPSRFSGSGSGTFYSLTISSVEAEDSADYYCHQWTSYMYTFGGGTKLEIK
B9: Ab16: mouse hybridoma anti-B7-H3 monoclonal antibody, mouse IgG1/k (antibody, V domains shown)
VH: EVKLLESGGGLVQPGGSLKLSCAASGFDFSRYWMSWVRQAPGKGLEWIGEINPDSSTINYTPSLKDKFIISRDNAKNTLYLQMSKVRSEDTALYYCARPGFGNYIYAMDYWGQGTSVTVSS
VL: DIQMTQTTSSLSASLGDRVTINCRASQDISNFLNWYQQKPDGTVKLLIYYTSRLYLGVPSRFSGSGSGTDYSLTISNLEQEDIATYFCQQGNTLPPTFGGGTKLEIK
B10: Ab6: mouse hybridoma anti-B7-H3 monoclonal antibody, mouse IgG1/k (antibody, V domains shown)
VH: QVQLQQSGAELMKPGASVKISCKATGYTFSRYWIEWVKQRPGHGLEWIGEILPGSGSTNYNEKFKGKATFTADTSSNTAYMQVSSLTSEDSAVHYCARRGYGYVPYALDYWGQGTSVTVSS
VL: EIQMTQTTSSLSASLGDRVTISCRASQDISNSLNWYQQKPDGTVNLLIYYTSRLYSGVPSRFSGSGSGTDYSLTISNLEQEDIATYFCQQGNTLPYTFGGGTKLEIK
B11: Ab18: mouse hybridoma anti-B7-H3 monoclonal antibody, mouse IgG1/k (antibody, V domains shown)
VH: QVQLQQSAAELARPGASVKMSCKASGYSFTSYTIHWVKQRPGQGLEWIGYINPNSRNTDYNQKFKDETTLTADRSSSTAYMQLISLTSEDSAVYYCARYSGSTPYWYFDVWGAGTTVTVSS
VL: QIVLTQSPAILSASPGEKVTMTCRASSSVSYMNWYQQKPGSSPKPWIYATSNLASGVPARFSVSVSGTSHSLTISRVEAEDAATYYCQQWSSNPLTFGAGTKLELK

Key:
huB7-H3 = molecular target: T1, huB7-H3 (Homo sapiens, UniProt Q5ZPR3); experiment: Biacore T200 SPR binding kinetics, mAb capture; settings: Table 3
T1 construct: His tag (6xHis) (C)
T1 sequence (Q5ZPR3 with tags, fused parts or gaps): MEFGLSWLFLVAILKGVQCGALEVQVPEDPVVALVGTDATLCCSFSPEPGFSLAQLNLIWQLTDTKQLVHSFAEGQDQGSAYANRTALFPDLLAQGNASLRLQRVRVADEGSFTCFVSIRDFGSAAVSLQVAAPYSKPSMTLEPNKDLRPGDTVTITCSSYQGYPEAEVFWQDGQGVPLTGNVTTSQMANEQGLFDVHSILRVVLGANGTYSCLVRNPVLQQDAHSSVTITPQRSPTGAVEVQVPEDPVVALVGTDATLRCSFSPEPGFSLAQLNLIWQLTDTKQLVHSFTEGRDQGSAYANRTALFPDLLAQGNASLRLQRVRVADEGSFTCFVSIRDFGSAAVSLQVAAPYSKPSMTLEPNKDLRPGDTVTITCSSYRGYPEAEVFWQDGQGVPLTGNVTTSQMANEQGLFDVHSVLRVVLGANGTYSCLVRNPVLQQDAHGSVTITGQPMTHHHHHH
Protocol: The binding affinity of the purified anti-B7-H3 monoclonal antibodies was determined by surface […]. […] The binding kinetics were derived from SPR measurements using a Biacore T200 instrument and a mAb capture approach (as described in the materials and methods below).
Biacore T200 SPR instruments were used to measure the binding kinetics of human B7-H3 (4Ig-B7-H3 variant) (analyte) binding to various mAbs (ligands). The assay format was Fc-based capture via immobilized anti-mouse (Fc) (Pierce 31170) or immobilized anti-human (Fc) (Pierce 31125). A standard amine coupling protocol was employed to immobilize the capture reagents via primary amines to the carboxy-methyl (CM) dextran surface of CM5 sensorchips (Biacore); capture antibodies were coupled to a level of approximately 5000 RU. For binding kinetic measurements the assay buffer was HBS-EP+(Biacore): 10 mM Hepes, pH7.4, 150 mM NaCl, 3 mM EDTA, 0.05% polysorbate 20. During the assay, all measurements were referenced against the capture surface alone. Each assay cycle consisted of the following steps: 1) Capture of ligand to approximately 50 RU; 2) Analyte injection over both reference and test surface, 240 μL at 80 μL/min, after which the dissociation was monitored for 900 seconds at 80 μL/min; 3) Regeneration of capture surface with low pH glycine. For kinetic determinations analyte injections were 3-point, 9-fold dilution series of 900 nM, 100 nM and 11.11 nM, buffer only injections were included for secondary referencing. Data were processed and fit to a 1:1 binding model using Biacore T200 Evaluation Software to determine the binding kinetic rate constants, ka (on-rate) and kd (off-rate), and the equilibrium dissociation constant (affinity, KD).

human B7-H3 = molecular target: T2, human B7-H3 (Homo sapiens, UniProt Q5ZPR3); experiment: Epitope grouping by pair-wise Biacore SPR binding; settings: simultaneous binding assay, FIG. 1
T2 construct: His tag (6xHis) (C)
T2 sequence (Q5ZPR3 with tags, fused parts or gaps): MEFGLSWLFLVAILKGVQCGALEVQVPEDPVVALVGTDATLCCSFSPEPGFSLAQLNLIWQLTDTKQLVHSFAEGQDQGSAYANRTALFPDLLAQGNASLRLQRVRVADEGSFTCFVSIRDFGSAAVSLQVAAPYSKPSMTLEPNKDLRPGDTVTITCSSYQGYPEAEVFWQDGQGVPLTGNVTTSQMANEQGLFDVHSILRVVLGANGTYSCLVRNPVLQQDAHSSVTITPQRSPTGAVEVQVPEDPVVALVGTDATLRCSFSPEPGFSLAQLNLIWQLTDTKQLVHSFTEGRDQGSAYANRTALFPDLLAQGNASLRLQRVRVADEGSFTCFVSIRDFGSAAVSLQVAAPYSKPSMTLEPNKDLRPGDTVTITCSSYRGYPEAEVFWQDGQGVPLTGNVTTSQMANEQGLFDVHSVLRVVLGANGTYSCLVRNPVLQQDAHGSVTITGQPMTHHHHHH
Source text: Pair-wise binding assays performed on Biacore T200 SPR instruments were used to determine the relative epitope grouping for the murine anti-B7-H3 mAbs as described in the methods below. […] Epitope groups are represented as individual ovals, some of which overlap with each other. Antibodies in different epitope groups can bind to B7-H3 simultaneously and likely bind to different epitopes while antibodies within a given epitope group cannot bind to B7-H3 simultaneously and likely bind to overlapping epitopes. The grouping information was derived from a simultaneous binding assay as described in materials and methods. Ab3, Ab4, Ab5, Abl 1, Ab12, and Ab8 groupings were ambiguous
Pair-wise binding assays performed on Biacore T200 SPR instruments were used to determine the relative epitope grouping for a series of anti-B7-H3 mAbs. The assay format was Fc-based capture via immobilized anti-mouse (Fc) (Pierce 31170) or immobilized anti-human (Fc) (Pierce 31125). A standard amine coupling protocol was employed to immobilize the capture reagents via primary amines to the carboxy-methyl (CM) dextran surface of CM5 sensorchips (Biacore); capture antibodies were coupled to a level of approximately 2000 RU. Epitope grouping measurements were done at 12° C. (low temperature allows for grouping information on fast off-rate mAbs), the assay buffer was HBS-EP+(Biacore): 10 mM Hepes, pH7.4, 150 mM NaCl, 3 mM EDTA, 0.05% polysorbate 20. Each assay cycle consisted of the following steps in a four flowcell system: 1) separate test mAbs were captured in flowcells 2, 3 & 4 (flowcell 1 was reference, no test mAb); 2) all 4 flowcells were then blocked by injection with isotype control mAb or isotype mAb cocktail at 50 μg/mL; 3) all 4 flowcells were then injected with antigen or buffer only (buffer only is for double referencing, done for each mAb pair individually); 4) all 4 flowcells were then injected with 2nd test mAb at 10 μg/mL; 5) all 4 flowcells were then regenerated with glycine, pH1.5. The assay was done for each test mAb pair in reciprocal orientations. Simultaneous binding was evaluated examining the ratio of the 2nd test mAb response to the Ag response (RUmAb2/RUAg); if this ratio was equal to or greater than 0.2 the interaction was scored as a simultaneous binder. From this pair-wise binding assay data a “venn” style diagram was constructed manually to depict relative epitope groupings.

Molecule | huB7-H3 ka(1/Ms) (huB7-H3) | epitope grouping (human B7-H3)
B1 | 110000 M⁻¹ s⁻¹ | –
B2 | 690000 M⁻¹ s⁻¹ | ambiguous
B3 | 540000 M⁻¹ s⁻¹ | –
B4 | 520000 M⁻¹ s⁻¹ | ambiguous
B5 | 41000 M⁻¹ s⁻¹ | –
B6 | 120000 M⁻¹ s⁻¹ | –
B7 | 330000 M⁻¹ s⁻¹ | –
B8 | 1.3e+06 M⁻¹ s⁻¹ | ambiguous
B9 | 140000 M⁻¹ s⁻¹ | –
B10 | 12000 M⁻¹ s⁻¹ | –
B11 | 210000 M⁻¹ s⁻¹ | –

— US20200002421A1, “ANTI-B7-H3 ANTIBODIES AND ANTIBODY DRUG CONJUGATES” (AbbVie Inc., priority 2016, published 2020)
